B1: TPL0674_03_F05 (scFv, V domains shown)
VH: EVQLVQSGAEVKKPGASVRVSCKASGYSITNYGISWVRQAPGQGLEWMGWINTYNGNTNYAQKFQGRVTMTRDTSISTAYMELSRLRSDDTAVYYCARDHPYRGMDVWGQGTLVTVSS
VL: SYELTQDPAVSVALGQTVRITCQGDSLRSYYASWYQQKPGQAPVLVIYGKNNRPSGIPDRFSGSSSGNTASLTITGAQAEDEADYYCNSRDSSGNHPHVVFGGGTKLTVL
B2: TPL0674_03_A04 (scFv, V domains shown)
VH: QVQLVQSGSELKKPGASVKVSCKASGYTFTSYAMNWVRQAPGQGLEWMGWINTNTGNPTYAQGFTGRFVFSLDTSVSTAYLQISSLKAEDTAVYYCARDQGGDRHFGYWGQGTTVTVSS
VL: QSELTQPPSASGTPGQRVTISCSGSSSNIGSHRVNWYQQLPGTAPKLLIYSNYHRPAGVPDRFSASKSGTSASLAISGLQSEDEADYYCAAWDDSLNGYVFGTGTQLTVL

Target: consensus sphingomyelinase
Test: BLI; ForteBio Octet RED96, […]; 1:1 binding model, […]; triplicate

| Binder | Kd [nM] |
| --- | --- |
| B1 | 60.2 |
| B2 | 31.5 |

Source: publication PMC10868436
